# In doi:10.1101/2025.04.30.651496 (bioRxiv, 2025):
# B1: untagged G3BP2 NTF2L domain (amino acids 1-139) (domain or fragment)
# chain: MVMEKPSPLLVGREFVRQYYTLLNKAPEYLHRFYGRNSSYVHGGVDASGKPQEAVYGQNDIHHKVLSLNFSECHTKIRHVDAHATLSDGVVVQVMGLLSNSGQPERKFMQTFVLAPEGSVPNKFYVHNDMFRYEDEVFG
# Biological target: the molecule itself
# Assay: cryo-EM structure
protein,measurement,value
B1,stoichiometry N,2
